Measurements published in patent publication US11969464B2, “Amidated peptides and their deamidated counterparts displayed by HLA-A*02 for use in immunotherapy against different types of cancers” (Immatics Biotechnologies GmbH, priority 2020, dated 2024).

Target: HLA-A*02:01 (Homo sapiens, UniProt P04439, D140Y/D185E/D98H/E176V/E277Q/G131W/G231S/I119V/I121R/I166T/I218V/L300P/L318F/N151K/N90K/P208A/P217A/Q86G/Q94H/R138H/R169H/T345S)
Assay: MHC binding assay (UV-ligand exchange, anti-β2m ELISA)
Conditions: peptide exchange yield, binding to HLA-A*02:01
Source text: Candidate peptides for T cell based therapies according to the present invention were further tested for their MHC binding capacity (affinity). The individual peptide-MHC complexes were produced by UV-ligand exchange, where a UV-sensitive peptide is cleaved upon UV-irradiation and exchanged with the peptide of interest as analyzed. Only peptide candidates that can effectively bind and stabilize the peptide-receptive MHC molecules prevent dissociation of the MHC complexes. To determine the yield of the exchange reaction, an ELISA was performed based on the detection of the light chain (β2m) of stabilized MHC complexes. The assay was performed as generally described in Rodenko et al. (Rodenko et al., 2006).
96 well MAXISorp plates (NUNC) were coated over night with 2 μg/ml streptavidin in PBS at room temperature, washed 4× and blocked for 1 h at 37° C. in 2% BSA containing blocking buffer. Refolded HLA-A*02:01/MLA-001 monomers served as standards, covering the range of 15-500 ng/ml. Peptide-MHC monomers of the UV-exchange reaction were diluted 100-fold in blocking buffer. Samples were incubated for 1 h at 37° C., washed four times, incubated with 2 μg/ml HRP conjugated anti-β2m for 1 h at 37° C., washed again and detected with TMB solution that is stopped with […]. Absorption was measured at 450 nm. Candidate peptides that show a high exchange yield (preferably higher than 50%, most preferred higher than 75%) are generally preferred for a generation and production of antibodies or fragments thereof, and/or T cell receptors or fragments thereof, as they show sufficient avidity to the MHC molecules and prevent dissociation of the MHC complexes.

42 (IQDTSHLAV; peptide displayed by HLA-A*02) [compound 42]
Peptide exchange: +++ (≥50% = +++)

70 (SMASFLKDV; peptide displayed by HLA-A*02) [compound 70]
Peptide exchange: ++++ (≥75% = ++++)

90 (VLDGTEVNL; peptide displayed by HLA-A*02) [compound 90]
Peptide exchange: ++++ (≥75% = ++++)

30 (QLMEKVQDV; peptide displayed by HLA-A*02) [compound 30]
Peptide exchange: +++ (≥50% = +++)

55 (KTWDQSIAL; peptide displayed by HLA-A*02) [compound 55]
Peptide exchange: ++++ (≥75% = ++++)

89 (SLFIDVTRV; peptide displayed by HLA-A*02) [compound 89]
Peptide exchange: ++++ (≥75% = ++++)

13 (VLMDGTLKQV; peptide displayed by HLA-A*02) [compound 13]
Peptide exchange: ++++ (≥75% = ++++)

39 (AVFDQTVTVI; peptide displayed by HLA-A*02) [compound 39]
Peptide exchange: +++ (≥50% = +++)

72 (ALDSTNSEL; peptide displayed by HLA-A*02) [compound 72]
Peptide exchange: ++++ (≥75% = ++++)

28 (FLLDGTDMFHM; peptide displayed by HLA-A*02) [compound 28]
Peptide exchange: +++ (≥50% = +++)

4 (YVWDRTELL; peptide displayed by HLA-A*02) [compound 4]
Peptide exchange: ++++ (≥75% = ++++)

88 (RLLDETVDVTI; peptide displayed by HLA-A*02) [compound 88]
Peptide exchange: ++++ (≥75% = ++++)

26 (ILYDGSNIQL; peptide displayed by HLA-A*02) [compound 26]
Peptide exchange: ++++ (≥75% = ++++)

31 (TLIDATWLV; peptide displayed by HLA-A*02) [compound 31]
Peptide exchange: ++++ (≥75% = ++++)

64 (ILFDPDNSSAL; peptide displayed by HLA-A*02) [compound 64]
Peptide exchange: ++++ (≥75% = ++++)

83 (FLNVDVSEV; peptide displayed by HLA-A*02) [compound 83]
Peptide exchange: ++++ (≥75% = ++++)

58 (SQDASLLKV; peptide displayed by HLA-A*02) [compound 58]
Peptide exchange: +++ (≥50% = +++)

74 (KILDFTGPLFL; peptide displayed by HLA-A*02) [compound 74]
Peptide exchange: ++++ (≥75% = ++++)

46 (SLSDVSQAV; peptide displayed by HLA-A*02) [compound 46]
Peptide exchange: +++ (≥50% = +++)

68 (RLQDTTIGL; peptide displayed by HLA-A*02) [compound 68]
Peptide exchange: ++++ (≥75% = ++++)

29 (KLLDLTVRI; peptide displayed by HLA-A*02) [compound 29]
Peptide exchange: ++++ (≥75% = ++++)

23 (FLGPIVDL; peptide displayed by HLA-A*02) [compound 23]
Peptide exchange: ++++ (≥75% = ++++)

14 (YIYDGKDMSSL; peptide displayed by HLA-A*02) [compound 14]
Peptide exchange: +++ (≥50% = +++)

56 (LLDSTAHLL; peptide displayed by HLA-A*02) [compound 56]
Peptide exchange: ++++ (≥75% = ++++)

5 (ALPQFFNDV; peptide displayed by HLA-A*02) [compound 5]
Peptide exchange: ++++ (≥75% = ++++)

94 (YLWWVNDQSL; peptide displayed by HLA-A*02) [compound 94]
Peptide exchange: ++++ (≥75% = ++++)

36 (SLYDFTGEQMAA; peptide displayed by HLA-A*02) [compound 36]
Peptide exchange: +++ (≥50% = +++)

63 (GLDRTQLVNV; peptide displayed by HLA-A*02) [compound 63]
Peptide exchange: ++++ (≥75% = ++++)

15 (VLDDTLVIF; peptide displayed by HLA-A*02) [compound 15]
Peptide exchange: +++ (≥50% = +++)

52 (ILFDDSVFTL; peptide displayed by HLA-A*02) [compound 52]
Peptide exchange: ++++ (≥75% = ++++)

87 (NMYDLTFHV; peptide displayed by HLA-A*02) [compound 87]
Peptide exchange: ++++ (≥75% = ++++)

41 (FLDTSTADV; peptide displayed by HLA-A*02) [compound 41]
Peptide exchange: ++++ (≥75% = ++++)

50 (ALYDSTRELL; peptide displayed by HLA-A*02) [compound 50]
Peptide exchange: ++++ (≥75% = ++++)

61 (FISDFTMTI; peptide displayed by HLA-A*02) [compound 61]
Peptide exchange: ++++ (≥75% = ++++)

73 (ALMDVSQNV; peptide displayed by HLA-A*02) [compound 73]
Peptide exchange: ++++ (≥75% = ++++)

54 (KLEERVYDV; peptide displayed by HLA-A*02) [compound 54]
Peptide exchange: ++++ (≥75% = ++++)

33 (ILFDLTHRV; peptide displayed by HLA-A*02) [compound 33]
Peptide exchange: ++++ (≥75% = ++++)

82 (FLNPDGSDCTL; peptide displayed by HLA-A*02) [compound 82]
Peptide exchange: ++++ (≥75% = ++++)

34 (SLLDGSESAKL; peptide displayed by HLA-A*02) [compound 34]
Peptide exchange: ++++ (≥75% = ++++)

10 (FLGEDISNFL; peptide displayed by HLA-A*02) [compound 10]
Peptide exchange: ++++ (≥75% = ++++)

38 (AVDGTDARL; peptide displayed by HLA-A*02) [compound 38]
Peptide exchange: +++ (≥50% = +++)

27 (YLFEDISQL; peptide displayed by HLA-A*02) [compound 27]
Peptide exchange: ++++ (≥75% = ++++)

12 (FVDEHTIDI; peptide displayed by HLA-A*02) [compound 12]
Peptide exchange: +++ (≥50% = +++)

2 (RLLEGDFSL; peptide displayed by HLA-A*02) [compound 2]
Peptide exchange: ++++ (≥75% = ++++)

102 (WLIDKSMEL; peptide displayed by HLA-A*02) [compound 102]
Peptide exchange: ++++ (≥75% = ++++)

51 (HLCNHDVSL; peptide displayed by HLA-A*02) [compound 51]
Peptide exchange: ++++ (≥75% = ++++)

22 (HMIDLTIHL; peptide displayed by HLA-A*02) [compound 22]
Peptide exchange: +++ (≥50% = +++)

16 (KLISDMGKDVSA; peptide displayed by HLA-A*02) [compound 16]
Peptide exchange: +++ (≥50% = +++)

85 (LLDITNPVL; peptide displayed by HLA-A*02) [compound 85]
Peptide exchange: ++++ (≥75% = ++++)

79 (ALAGLVYDA; peptide displayed by HLA-A*02) [compound 79]
Peptide exchange: ++++ (≥75% = ++++)

53 (ILTDITGHDV; peptide displayed by HLA-A*02) [compound 53]
Peptide exchange: +++ (≥50% = +++)

75 (KLHDTSFCL; peptide displayed by HLA-A*02) [compound 75]
Peptide exchange: ++++ (≥75% = ++++)

81 (AVDKTQTSV; peptide displayed by HLA-A*02) [compound 81]
Peptide exchange: +++ (≥50% = +++)

9 (SLDDSLNEL; peptide displayed by HLA-A*02) [compound 9]
Peptide exchange: +++ (≥50% = +++)

93 (YLDGTFRLL; peptide displayed by HLA-A*02) [compound 93]
Peptide exchange: +++ (≥50% = +++)

62 (FLKDVTAQI; peptide displayed by HLA-A*02) [compound 62]
Peptide exchange: ++++ (≥75% = ++++)

35 (SLRDGTEVV; peptide displayed by HLA-A*02) [compound 35]
Peptide exchange: +++ (≥50% = +++)

21 (FLNLFDHTL; peptide displayed by HLA-A*02) [compound 21]
Peptide exchange: ++++ (≥75% = ++++)

71 (YLGAVFDL; peptide displayed by HLA-A*02) [compound 71]
Peptide exchange: ++++ (≥75% = ++++)

11 (GLVDGSSVTV; peptide displayed by HLA-A*02) [compound 11]
Peptide exchange: ++++ (≥75% = ++++)

17 (NVDSTILNL; peptide displayed by HLA-A*02) [compound 17]
Peptide exchange: ++++ (≥75% = ++++)

48 (AIYHDITGISV; peptide displayed by HLA-A*02) [compound 48]
Peptide exchange: +++ (≥50% = +++)

78 (AIDQTITEA; peptide displayed by HLA-A*02) [compound 78]
Peptide exchange: +++ (≥50% = +++)

57 (SLDISLPNL; peptide displayed by HLA-A*02) [compound 57]
Peptide exchange: ++++ (≥75% = ++++)

91 (VLKDGTLVI; peptide displayed by HLA-A*02) [compound 91]
Peptide exchange: ++ (≥20% =++)

45 (SLFDDSFSL; peptide displayed by HLA-A*02) [compound 45]
Peptide exchange: ++++ (≥75% = ++++)

86 (NLADNTILV; peptide displayed by HLA-A*02) [compound 86]
Peptide exchange: ++++ (≥75% = ++++)
